For the test, the target named is GCaMP2 [GFP: P42212]. Nature of the test: SEC. For orientation: Size exclusion chromatography separates by hydrodynamic size, large species first.

Broadly, the stoichiometry N is the number of molecules, sites or subunits per partner or assembly.

For “GCaMP2 (from UniProt P42212 149-238; P42212 1-144)”, the percent present as dimer at the concentrations seen in the brain slice (∼10 μM) is 5% and the stoichiometry N is 2.

The values above are taken from publication PMC2649101.
